Experimental data as given in patent US20120014885A1 (DANISCO US, published 2012).
Ends that are not written are not given here.

B1: biotinylated peptide CK37281 (peptide)
peptide: ACYNLYGWTC
modifications: cysteine pairing not given here; also: biotinylated (site not given here)
notes: Synthetic peptide (FMOC chemistry, SynPep)
B2: 2BBIck81 (designed binder)
chain: DDESSKPCCDQCACTKSNPPQCRCSDMRLNSCHSACKSCACYNLYGWTCFCVDITDFCYEPCKPSEDDKEN
notes: also called free 2BBIck81; 2BBlck81
B3: SEQ ID NO 1 (peptide)
peptide: YNLYGWT
notes: Clone of the PhD C7C library (NEB): the 7-mer stands between two cysteines on M13 phage; tested as whole phage; also called YNLYGWT
B4: BLA (enzyme)
chain: TPVSEKQLAEVVANTITPLMKAQSVPGMAVAVIYQGKPHYYTFGKADIAANKPVTPQTLFELGSISKTFTGVLGGDAIARGEISLDDAVTRYWPQLTGKQWQGIRMLDLATYTAGGLPLQVPDEVTDNASLLRFYQNWQPQWKPGTTRLYANASIGLFGALAVKPSGMPYEQAMTTRVLKPLKLDHTWINVPKAEEAHYAWGYRDGKAVRVSPGMLDAQAYGVKTNVQDMANWVMANMAPENVADASLKQGIALAQSRYWRIGSMYQGLGWEMLNWPVEANTVVEGSDSKVALAPLPVAEVNPPAPPVKASWVHKTGSTGGFGSYVAFIPEKQIGIVMLANTSYPNPARVEAAYHILEALQHHHHHH
notes: also called pCB04; pCB04 (WT)

Legend:
human VEGF165 [1] = target: T1, human VEGF165 (human, UniProt P15692-4 27-191); assay: SPR (BIAcore 3000), VEGF165 coupled to CM5, peptide injected, TNF-alpha reference lane; two state reaction model with conformation change; overall KD of the two state fit
T1 construct: Bought protein; panning target, amine-coupled to CM5 chips for BIAcore, coated on plates; also called hVEGF165; hVEGF
T1 sequence (P15692 other isoform, or with tags, fused parts or gaps limits assumed): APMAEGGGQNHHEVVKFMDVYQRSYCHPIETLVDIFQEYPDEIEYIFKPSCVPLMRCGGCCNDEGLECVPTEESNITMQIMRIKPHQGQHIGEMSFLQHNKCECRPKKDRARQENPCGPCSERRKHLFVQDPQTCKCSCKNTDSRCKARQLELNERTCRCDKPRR
Experimental: (§1) Affinities of the peptides for VEGF were measured using a BIAcore™-3000 surface plasmon resonance system (Biacore). A CM5 sensor chip was conditioned with 50 mM NaOH, 0.1% HCl, 0.1% SDS, and 0.08% H₃PO₄, and activated for covalent coupling of VEGF using N-ethyl-N′-(3-dimethylaminopropyl)-carbodiimide hydrochloride (EDC) and N-hydroxysuccinimide (NHS) according to the supplier's instructions (Biacore). Human VEGF₁₆₅ (Biosource) was diluted to 5 μg/ml in 20 mM sodium acetate, pH 4.8 and injected at a flow rate of 2 μl/min to achieve approximately 1000 to 6000 response units (RU) of coupled protein. TNF-alpha (human TNF-alpha, Biosource, Int., Camarillo, Calif.) was similarly coupled to the CM5 sensor chip to approximately 850 to 3500 RU in the reference lane. A solution of 1 M ethanolamine was injected as a blocking agent. In some experiments, an additional solution of EDC and NHS were injected to improve baseline stability and a solution of 1 M ethanolamine injected as a blocking agent. The reference lane was activated with EDC and NHS and blocked with ethanolamine.

human VEGF165 [2] = target: T1, human VEGF165; assay: SPR (BIAcore 3000), VEGF165 coupled to CM5, peptide injected, TNF-alpha reference lane; two state reaction model with conformation change; first step of the two state fit (ka1)
Experimental: as §1

human VEGF165 [3] = target: T1, human VEGF165; assay: SPR (BIAcore 3000), VEGF165 coupled to CM5, peptide injected, TNF-alpha reference lane; two state reaction model with conformation change; first step of the two state fit (kd1)
Experimental: as §1

[4] = target: T2, VegF (PeproTech), labeled with biotin (UniProt P15692-4 27-191, limits assumed, biotin label (site not stated)); assay: ECL competition assay (BioVeris): biotinylated VegF on streptavidin beads, competitor ECL labeled Anti-VegF antibody
T2 construct: Captured on streptavidin coated beads in the BioVeris ECL assay; also called biotinylated VegF
T2 sequence (P15692 other isoform, or with tags, fused parts or gaps limits assumed): as above

BSA [5] = target: T3, BSA (UniProt P02769 25-607); assay: phage ELISA, equivalent amounts of phage, anti-M13-HRP, ABTS, A405 after 30 min (n=3)
T3 sequence (P02769 25-607 limits assumed): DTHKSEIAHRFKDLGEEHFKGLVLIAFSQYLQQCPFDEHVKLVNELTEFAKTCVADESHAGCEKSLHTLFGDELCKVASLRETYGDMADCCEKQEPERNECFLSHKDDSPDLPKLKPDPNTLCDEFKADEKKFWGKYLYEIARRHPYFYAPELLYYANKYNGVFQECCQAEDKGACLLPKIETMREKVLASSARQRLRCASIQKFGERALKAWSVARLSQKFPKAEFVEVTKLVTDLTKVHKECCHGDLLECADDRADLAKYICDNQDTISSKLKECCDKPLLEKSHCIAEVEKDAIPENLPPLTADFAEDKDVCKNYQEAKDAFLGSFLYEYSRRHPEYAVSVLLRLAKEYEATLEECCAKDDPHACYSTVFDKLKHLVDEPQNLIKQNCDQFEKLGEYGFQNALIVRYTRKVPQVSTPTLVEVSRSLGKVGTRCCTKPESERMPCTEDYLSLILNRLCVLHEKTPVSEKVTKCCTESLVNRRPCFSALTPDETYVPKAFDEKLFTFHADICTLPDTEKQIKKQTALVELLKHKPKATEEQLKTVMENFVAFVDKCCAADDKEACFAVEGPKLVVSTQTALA
Experimental: (§2) Equivalent amounts of phage were evaluated to determine their relative binding affinity to hVEGF₁₆₅. […] Target-bound phage were detected with anti-M13-HRP.

BSA [6] = target: T3, BSA; assay: phage ELISA, anti-M13-HRP, ABTS, A405
Experimental: as §2

human VEGF165 [7] = target: T1, human VEGF165; assay: bound beta-lactamase activity (nitrocefin, mOD/min) on hVEGF165 coated wells after washing

Binder	binding result (BSA [5])	further results
B1	–	Kd (human VEGF165 [1]): 1920 nM; kon (human VEGF165 [2]): 2840 M⁻¹ s⁻¹; koff (human VEGF165 [3]): 0.0122 s⁻¹
B2	–	IC50 (read off the curve) [4]: ~3000 nM
HLAPSAV (tested as whole phage) [SEQ ID NO 13]	no binding	–
APWNSHI (tested as whole phage) [SEQ ID NO 5]	no binding	–
APWNLHI (tested as whole phage) [SEQ ID NO 6]	–	binding result (BSA [6]): no binding
TLWPTFW (tested as whole phage) [SEQ ID NO 2]	no binding	–
B3	no binding	–
B4	–	binding result (human VEGF165 [7]): no binding (tested: about 40 uM)
TLWPSYW (tested as whole phage) [SEQ ID NO 7]	no binding	–
SLWPAFW (tested as whole phage) [SEQ ID NO 4]	no binding	–
NLWPHFW (tested as whole phage) [SEQ ID NO 3]	no binding	–
